Source: patent US20240325555A1 (LANOVA MEDICINES, published 2024)
Read-outs that look alike come from different tables or passages of the source.

How the values were obtained:
human LIV-1 [1] = target: T1, human LIV-1 (human, UniProt Q13433 29-755); assay: cell-based or functional assay
T1 sequence (looked up): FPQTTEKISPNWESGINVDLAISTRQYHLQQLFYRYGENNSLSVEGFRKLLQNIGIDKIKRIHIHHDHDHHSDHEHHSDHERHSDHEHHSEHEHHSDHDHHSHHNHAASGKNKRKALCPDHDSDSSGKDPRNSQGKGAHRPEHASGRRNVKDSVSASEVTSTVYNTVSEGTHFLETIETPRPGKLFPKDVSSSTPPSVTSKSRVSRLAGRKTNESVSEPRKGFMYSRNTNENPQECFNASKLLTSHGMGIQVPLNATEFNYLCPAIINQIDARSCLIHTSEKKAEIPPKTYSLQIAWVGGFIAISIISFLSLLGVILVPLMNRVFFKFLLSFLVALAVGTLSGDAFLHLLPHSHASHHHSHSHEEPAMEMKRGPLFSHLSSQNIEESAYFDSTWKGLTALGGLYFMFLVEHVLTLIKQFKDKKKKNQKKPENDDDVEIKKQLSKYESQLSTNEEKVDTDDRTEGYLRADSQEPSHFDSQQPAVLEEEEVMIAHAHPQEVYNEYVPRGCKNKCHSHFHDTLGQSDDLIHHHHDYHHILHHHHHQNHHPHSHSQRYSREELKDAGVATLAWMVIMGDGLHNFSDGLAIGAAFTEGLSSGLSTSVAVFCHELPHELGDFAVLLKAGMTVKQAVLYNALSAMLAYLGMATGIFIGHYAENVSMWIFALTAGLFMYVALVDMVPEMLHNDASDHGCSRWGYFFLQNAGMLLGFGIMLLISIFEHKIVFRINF

human LIV-1 [2] = target: T1, human LIV-1; assay: FACS, HEK293/H_LIV-1 cells
Protocol: (§1) In this example, cell based binding of humanized antibodies (hu Abs) on human LIV-1-expressing cells were assessed using flow cytometry.
(§2) Cell based binding of hu-Abs on human LIV-1 expressing cells were assessed using flow cytometry. Briefly, the HEK293/H_LIV-1 cells were incubated with hu-Abs (from 100 nM, 6 folds dilution, 8 points). After incubation at 4° C. for 60 minutes, the cells were washed with FACS buffer twice, then stained with fluorescent conjugated secondary antibody at 4° C. for 30 minutes. After that the cells were washed twice and analyzed by flow cytometry.

cynomolgus LIV-1 [3] = target: T2, cynomolgus LIV-1 (cynomolgus, UniProt A0A2K5WH46 30-741); assay: FACS, HEK293/Cyno_LIV-1 cells
Target sequence in this assay (A0A2K5WH46 entry or part of it): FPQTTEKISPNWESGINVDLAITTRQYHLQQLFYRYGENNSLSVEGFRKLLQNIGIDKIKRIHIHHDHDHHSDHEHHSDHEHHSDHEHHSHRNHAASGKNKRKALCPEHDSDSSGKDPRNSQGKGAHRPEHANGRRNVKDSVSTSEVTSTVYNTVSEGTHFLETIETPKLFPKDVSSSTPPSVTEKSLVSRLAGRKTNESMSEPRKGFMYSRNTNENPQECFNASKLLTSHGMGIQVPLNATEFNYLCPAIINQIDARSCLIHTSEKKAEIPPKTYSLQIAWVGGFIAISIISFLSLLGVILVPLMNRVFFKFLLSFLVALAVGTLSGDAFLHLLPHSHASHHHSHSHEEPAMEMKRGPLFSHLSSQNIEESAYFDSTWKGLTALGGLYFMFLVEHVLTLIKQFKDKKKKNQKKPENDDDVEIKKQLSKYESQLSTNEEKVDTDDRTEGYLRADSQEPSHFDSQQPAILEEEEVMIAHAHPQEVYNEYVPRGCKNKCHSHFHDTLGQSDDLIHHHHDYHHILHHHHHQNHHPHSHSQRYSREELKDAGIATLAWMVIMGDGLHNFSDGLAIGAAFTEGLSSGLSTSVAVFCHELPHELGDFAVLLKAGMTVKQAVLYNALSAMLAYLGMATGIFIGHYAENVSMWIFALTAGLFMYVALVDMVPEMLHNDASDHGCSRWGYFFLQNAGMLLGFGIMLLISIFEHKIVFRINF

rhesus LIV-1 = rhesus LIV-1 (rhesus, UniProt H9FSJ2 30-735); assay: FACS, HEK293/Rhe_LIV-1 cells
Protocol: Humanized antibodies 5D6B10.z7, 124H4D11.p2.z4 and 290F10G10.p1.z2 were selected for further testing. In this example, FACS cross binding of these selected antibodies to LIV-1 of different species were assessed using flow cytometry.
(§3) Cell based binding of optimal leads to different species LIV-1 expressing cells were assessed using flow cytometry. Briefly, the cells were incubated with optimal leads (from 100 nM, 6 folds dilution, 8 points). After incubation at 4° C. for 60 minutes, the cells were washed with 2% FBS/PBS buffer twice, then stained with fluorescent conjugated secondary antibody at 4° C. for 30 minutes. After that the cells were washed twice and resuspended in 80 μL of 2% FBS/PBS buffer. Fluorescent signal of binding was detected using Agilent. The EC50 was calculated using the GraphPad Software (LaJolla, CA).

cynomolgus LIV-1 [4] = target: T2, cynomolgus LIV-1; assay: FACS, HEK293/Cyno_LIV-1 cells; remark: listed apart in the source
Protocol: as §3
Target sequence in this assay (A0A2K5WH46 entry or part of it): as above

cynomolgus LIV-1 [5] = target: T2, cynomolgus LIV-1; assay: FACS, HEK293/Cyno_LIV-1 cells; remark: listed apart in the source
How it was run: (§4)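 HEK293 cells over-expressing human or cyno LIV-1 incubated with chimeric Abs (from 100 nM, 5-fold dilutions, 8 points) for 60 min at 4 °C, then fluorescent secondary antibody 30 min at 4 °C; washes in 2% FBS/PBS. Binding read by flow cytometry; EC50 from the titration curve.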

human LIV-1 [6] = target: T1, human LIV-1; assay: cell-based or functional assay; remark: listed apart in the source
human LIV-1 [7] = target: T1, human LIV-1; assay: FACS, HEK293/H_LIV-1 cells; remark: listed apart in the source
How it was run: as §4

human LIV-1 [8] = target: T1, human LIV-1; assay: cell-based or functional assay; remark: listed apart in the source
human LIV-1 [9] = target: T1, human LIV-1; assay: FACS, BT20/H_LIV-1 Low cells
Protocol: (§5) Cell based binding of ADC and naked of ADC on human LIV-1 expressing cells were assessed using flow cytometry. Briefly, HEK293/H_LIV-1, both low- and high-expressing H-LIV1-positive cell lines were incubated with ADC and naked of ADC (from 100 nM, 6 folds dilution, 8 points), respectively. After incubation at 4° C. for 60 minutes, the cells were washed with FACS buffer twice, then stained with fluorescent conjugated secondary antibody at 4° C. for 30 minutes. After that the cells were washed twice and analyzed by flow cytometry.

human LIV-1 [10] = target: T1, human LIV-1; assay: cell-based or functional assay; remark: listed apart in the source
human LIV-1 [11] = target: T1, human LIV-1; assay: FACS, BT20/H_LIV-1 High cells
Protocol: as §5

cynomolgus LIV-1 [12] = target: T2, cynomolgus LIV-1; assay: FACS, cyno LIV-1 cells
Target sequence in this assay (A0A2K5WH46 entry or part of it): as above

human LIV-1 [13] = target: T1, human LIV-1; assay: FACS, human LIV-1 cells
Protocol: as §1, §2

human LIV-1 [14] = target: T1, human LIV-1; assay: FACS, HEK293/H_LIV-1 cells; remark: listed apart in the source
Protocol: as §5

human LIV-1 [15] = target: T1, human LIV-1; assay: cell-based or functional assay; remark: listed apart in the source
human LIV-1 [16] = target: T1, human LIV-1; assay: cell-based or functional assay; remark: listed apart in the source

Sequence of rhesus LIV-1 (H9FSJ2 entry or part of it): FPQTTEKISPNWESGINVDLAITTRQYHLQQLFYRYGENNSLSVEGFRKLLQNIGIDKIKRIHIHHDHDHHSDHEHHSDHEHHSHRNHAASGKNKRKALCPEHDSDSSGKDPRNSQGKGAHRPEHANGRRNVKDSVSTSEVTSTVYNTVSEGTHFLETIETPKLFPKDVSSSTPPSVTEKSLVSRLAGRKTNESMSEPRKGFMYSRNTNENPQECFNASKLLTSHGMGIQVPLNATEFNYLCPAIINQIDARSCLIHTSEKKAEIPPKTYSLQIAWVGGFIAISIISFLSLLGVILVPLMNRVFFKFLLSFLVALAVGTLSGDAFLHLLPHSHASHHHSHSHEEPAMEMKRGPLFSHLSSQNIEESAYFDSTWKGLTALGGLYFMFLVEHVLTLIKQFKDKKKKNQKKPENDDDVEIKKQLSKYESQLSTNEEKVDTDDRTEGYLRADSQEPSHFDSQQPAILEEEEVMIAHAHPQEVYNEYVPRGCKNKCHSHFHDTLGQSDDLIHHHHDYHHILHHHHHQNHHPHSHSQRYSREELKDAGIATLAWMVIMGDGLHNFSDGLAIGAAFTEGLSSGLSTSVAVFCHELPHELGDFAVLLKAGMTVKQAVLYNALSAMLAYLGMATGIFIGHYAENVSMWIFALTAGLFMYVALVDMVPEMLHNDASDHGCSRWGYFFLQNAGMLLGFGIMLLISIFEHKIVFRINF

B1: 5D6B10 (antibody, V domains shown)
VH: QVQLKQSGPGLVQPSQSLSITCTVSGFSLTTYGIHWVRQSPGKGLEWLGVIWTGGTTDYNAAFISRLSISKDNSKSQVFFKMNSLQANDTAIYYCARGPSSYWGQGTLVTVSA
VL: DIVMTQSQKFMSTSVGDRVSVTCKASQNVDTNVVWYQQKPGQSPKALIHSASYRYSGVPDRFTGSGSGTDFTLTISNVQSEDLAEYFCQQYNNYPWTFGGGTKLEIK
notes: Tested as chimeric antibody
- Internalization EC50 (human LIV-1 [1]): 12.7 nM
- Internalization Top (RFU) (human LIV-1 [1]): 145000 RFU
- EC50 (human LIV-1 [2]): 0.29 nM
- Top (MFI) (human LIV-1 [2]): 61900 MFI
- EC50 (cynomolgus LIV-1 [3]): 0.39 nM
- Top (MFI) (cynomolgus LIV-1 [3]): 25700 MFI
- EC50 (rhesus LIV-1): 0.27 nM
- Top (MFI) (rhesus LIV-1): 38400 MFI
- EC50 (cynomolgus LIV-1 [4]): 0.53 nM
- Top (MFI) (cynomolgus LIV-1 [4]): 13900 MFI
- EC50 (cynomolgus LIV-1 [5]): 0.17 nM
- Top (MFI) (cynomolgus LIV-1 [5]): 41100 MFI
- Cell viability(%) (human LIV-1 [6]): 16.4%
- Cytotoxicity IC50 (human LIV-1 [6]): 1.55 nM
- EC50 (human LIV-1 [7]): 0.21 nM
- Top (MFI) (human LIV-1 [7]): 70100 MFI
- ADCC reporter EC50 (human LIV-1 [8]): 0.3 nM
- ADCC reporter Top (RFU) (human LIV-1 [8]): 121000 RFU

B2: 290F10G10.p1.Z2 (antibody, V domains shown)
VH: EVQLVQSGAEVKKPGASVKVSCKASGYTFTSYWIHWVRQAPGQGLEWMGTIYPGDADTRSTQKFKDRVTMTADTSTSTVYMELSSLRSEDTAVYYCARSLIHDDYDKYYFDYWGQGTTVTVSS
VL: DIQMTQSPSSLSASVGDRVTITCKARQDINKYIAWYQQKPGKAPKLLIHYTSILQPGIPSRFSGSGSGRDYTFTISSLQPEDIATYYCLQYDYFFTFGGGTKVEIK
notes: also called 290F10G10.z2; LM-001
- EC50 (human LIV-1 [9]): 1.43 nM
- Top (MFI) (human LIV-1 [9]): 3400 MFI
- Internalization EC50 (human LIV-1 [10]): 5 nM
- Internalization Top (MFI) (human LIV-1 [10]): 112000 MFI
- EC50 (human LIV-1 [11]): 1.06 nM
- Top (MFI) (human LIV-1 [11]): 18800 MFI
- EC50 (cynomolgus LIV-1 [12]): 0.38 nM
- Top (MFI) (cynomolgus LIV-1 [12]): 7470 MFI
- EC50 (human LIV-1 [13]): 0.24 nM
- Top (MFI) (human LIV-1 [13]): 7660 MFI
- EC50 (human LIV-1 [14]): 0.7 nM
- Top (MFI) (human LIV-1 [14]): 17800 MFI

B3: 290F10G10.z2-MMAE (antibody, V domains shown)
VH: EVQLVQSGAEVKKPGASVKVSCKASGYTFTSYWIHWVRQAPGQGLEWMGTIYPGDADTRSTQKFKDRVTMTADTSTSTVYMELSSLRSEDTAVYYCARSLIHDDYDKYYFDYWGQGTTVTVSS
VL: DIQMTQSPSSLSASVGDRVTITCKARQDINKYIAWYQQKPGKAPKLLIHYTSILQPGIPSRFSGSGSGRDYTFTISSLQPEDIATYYCLQYDYFFTFGGGTKVEIK
modifications: MMAE drug moiety conjugated; site and chain not stated
notes: also called LM-001-MMAE
- Min cell viability %, BT20/H_LIV-1 High (human LIV-1 [15]): 14.7%
- Min cell viability %, BT20/H_LIV-1 Low (human LIV-1 [15]): 37.9%
- Min cell viability %, HEK293/H_LIV-1 (human LIV-1 [15]): 15.3%
- EC50 (human LIV-1 [9]): 0.68 nM
- Top (MFI) (human LIV-1 [9]): 3570 MFI
- EC50 (human LIV-1 [11]): 0.66 nM
- Top (MFI) (human LIV-1 [11]): 20800 MFI
- Bottom (% viability), BT20/H_LIV1-High expression (human LIV-1 [16]): 29.1%
- Bottom (% viability), BT20/H_LIV1-Low expression (human LIV-1 [16]): 46.8%
- EC50 (human LIV-1 [14]): 0.34 nM
- Top (MFI) (human LIV-1 [14]): 19100 MFI
